Data published in the MegaScale stability set (Tsuboyama et al. 2023).

B1: EEHEE_rd4_0763 (parent)
chain: LTVHVGNVTYHFDNPEQAEEWAKRMAKKYQGQIHVKDGQFRIE

Variants of: B1
Experiment: folding stability dG (cDNA display proteolysis); higher = more stable
Settings: PBS, room temperature

First: GTVHVGNVTYHFDNPEQAEEWAKRMAKKYQGQIHVKDGQFRIE
Second: HTVHVGNVTYHFDNPEQAEEWAKRMAKKYQGQIHVKDGQFRIE
The “folding stability dG” value of the first is lower: 1.77 kcal/mol for the first, 2.13 kcal/mol for the second.

Going from FTVHVGNVTYHFDNPEQAEEWAKRMAKKYQGQIHVKDGQFRIE to LTVHVGNVTYHFDNPEQAEEWAKRMAKKYAGQIHVKDGQFRIE, the “folding stability dG” value falls from 2.66 kcal/mol to 1.64 kcal/mol.

Compared with LTVHVGNVTYHFDNPEQAEEWAKRMAKKYSGQIHVKDGQFRIE, LTVHVGNVTMHFDNPEQAEEWAKRMAKKYQGQIHVKDGQFRIE is lower in “folding stability dG” value: 1.66 kcal/mol for the first, 0.903 kcal/mol for the second.

Going from LTVHVGNVTYHFDNPEQAEEWAKRMAKKYQGQIVVKDGQFRIE to LTVHVGNVTYHFDNPEQAEEWAKRMAKKYQGQIPVKDGQFRIE, the “folding stability dG” value falls from 2.26 kcal/mol to 0.852 kcal/mol.

LTVHVGNVTYHFDNPEQAEEWAKRMAKKYQGQINVKDGQFRIE and LTVHVGNVTYHFDNPEQAEEWAKRMAKKYQGQIHVKDGIFRIE are the same in “folding stability dG” value: 1.52 kcal/mol for the first, 1.52 kcal/mol for the second.

Going from LTVHVGNVTYHFDNPEQAEEWAKRMAKKYQGQIHVKDGNFRIE to LTVHVGNVTYHFDNPEQAEEWAKRMAKKYQGQIHVKDLQFRIE, the “folding stability dG” value falls from 1.66 kcal/mol to 1.18 kcal/mol.

First: LTVHVGNVTYHFDNPEQAEEWAKRMAKKYQGQIHVKDMQFRIE
Second: LTVHVGNVTYHFDNPEQAEEWAKRMAKKYQGQIHVKDPQFRIE
The “folding stability dG” value of the first is lower: 0.911 kcal/mol for the first, 1.18 kcal/mol for the second.

First: LTVHVGNVTYHADNPEQAEEWAKRMAKKYQGQIHVKDGQFRIE
Second: LTVHVGNVTYHPDNPEQAEEWAKRMAKKYQGQIHVKDGQFRIE
The “folding stability dG” value of the first is higher: 0.274 kcal/mol for the first, -0.199 kcal/mol for the second.

Going from LTVHVGNVTYHFDNPEQAEEWAKRPAKKYQGQIHVKDGQFRIE to LTVHVGNVFYHFDNPEQAEEWAKRMAKKYQGQIHVKDGQFRIE, the “folding stability dG” value rises from -0.51 kcal/mol to 1.37 kcal/mol.

Compared with LTVHVGNVTYHFDNPEQAEHWAKRMAKKYQGQIHVKDGQFRIE, LTVHVGNVTYHFDNPEQAEPWAKRMAKKYQGQIHVKDGQFRIE is lower in “folding stability dG” value: 1.41 kcal/mol for the first, -0.521 kcal/mol for the second.

First: LTVHVGNVTYHFDNPEQAEKWAKRMAKKYQGQIHVKDGQFRIE
Second: LTVHVGNVTYHFDNPEQAREWAKRMAKKYQGQIHVKDGQFRIE
The “folding stability dG” value of the first is higher: 1.8 kcal/mol for the first, 1.69 kcal/mol for the second.

Going from LTVHVGNVTYHFDNPEQACEWAKRMAKKYQGQIHVKDGQFRIE to LTVHVGNVTYHFDNPEQAMEWAKRMAKKYQGQIHVKDGQFRIE, the “folding stability dG” value falls from 2.53 kcal/mol to 2.07 kcal/mol.

First: LTVHHGNVTYHFDNPEQAEEWAKRMAKKYQGQIHVKDGQFRIE
Second: LTVHAGNVTYHFDNPEQAEEWAKRMAKKYQGQIHVKDGQFRIE
The “folding stability dG” value of the first is lower: 1.26 kcal/mol for the first, 1.32 kcal/mol for the second.

First: LTVHCGNVTYHFDNPEQAEEWAKRMAKKYQGQIHVKDGQFRIE
Second: LTVHVGNVTYHFDNPEQAEEWAKRMAKKYQGQIHVGDGQFRIE
The “folding stability dG” value of the first is higher: 2.66 kcal/mol for the first, 1.39 kcal/mol for the second.

First: LTVHVGNVTYHFDNPEQAEEWAKRMAKKYQGQIHVKDGQFRME
Second: LTVHVCNVTYHFDNPEQAEEWAKRMAKKYQGQIHVKDGQFRIE
The “folding stability dG” value of the first is lower: 0.632 kcal/mol for the first, 2.58 kcal/mol for the second.

Going from LTVHVNNVTYHFDNPEQAEEWAKRMAKKYQGQIHVKDGQFRIE to LTVHVGNVTYHFDNPEQAEEWAKRMAKKYQGQIHVKDGQRRIE, the “folding stability dG” value falls from 1.71 kcal/mol to 1 kcal/mol.

First: LTVHVGNVTYHFDNPEQAEEWAKRMAKKYQGQIHVKDGQSRIE
Second: LTVHVGNVTYHFDNPEQAEEWAKRMAKKYQGQIHVKDGQPRIE
The “folding stability dG” value of the first is higher: 1.03 kcal/mol for the first, 1.01 kcal/mol for the second.

First: LTVHVGNVTYHFDNPEQAEEWAKRMAKKYQGQDHVKDGQFRIE
Second: LTVHVGNVTYHFDNPEQAEEWAKRMAKKYQGQFHVKDGQFRIE
The “folding stability dG” value of the first is lower: 0.877 kcal/mol for the first, 1.41 kcal/mol for the second.

First: LTVHVGNVTYHFDNPEQAEEWAKRMAKKYQGQMHVKDGQFRIE
Second: LTVHVGNVTYHFDNPEQAEEWAKRMAKKYQGQNHVKDGQFRIE
The “folding stability dG” value of the first is higher: 1.21 kcal/mol for the first, 0.836 kcal/mol for the second.

Compared with LTVHVGNVTYHFVNPEQAEEWAKRMAKKYQGQIHVKDGQFRIE, LTVHVGNVTYHFENPEQAEEWAKRMAKKYQGQIHVKDGQFRIE is higher in “folding stability dG” value: 1.46 kcal/mol for the first, 1.6 kcal/mol for the second.

Compared with LTVHVGNVTYHFLNPEQAEEWAKRMAKKYQGQIHVKDGQFRIE, LTVHVGNVTYHFFNPEQAEEWAKRMAKKYQGQIHVKDGQFRIE is lower in “folding stability dG” value: 1.51 kcal/mol for the first, 1.36 kcal/mol for the second.

Compared with LTVHVGNVTYHFDNPEQAEEWAFRMAKKYQGQIHVKDGQFRIE, LTVHVGNVTYHFDNPEQAEEWAWRMAKKYQGQIHVKDGQFRIE is lower in “folding stability dG” value: 1.61 kcal/mol for the first, 1.56 kcal/mol for the second.

Compared with LTVHVGNVTYHFDNPEQAEEWANRMAKKYQGQIHVKDGQFRIE, LTVHVGNVTYHFDNPEQAEEWAKRMAKKYQGQIHVKDGQFMIE is higher in “folding stability dG” value: 1.38 kcal/mol for the first, 1.94 kcal/mol for the second.

Compared with LTVHVGNVTYHFDNPEQAEEWAKRMAKKYQGQIHVKDGQFKIE, LTVHVGNVTYHFDNPEQAEEWAKRMAKKYQGQIHVKDGQFEIE is higher in “folding stability dG” value: 1.38 kcal/mol for the first, 1.59 kcal/mol for the second.

First: LTVHVGNVTYHFDNPEQAEEWAKRMAKKYQGQIHVKDGQFWIE
Second: LTVHVGNVTYHFDNPEQAEEWAKRMAKKYQGQIHVKDGQFLIE
The “folding stability dG” value of the first is higher: 3.13 kcal/mol for the first, 1.98 kcal/mol for the second.

Going from LTVHVGNVTYHFDNPEQAEEIAKRMAKKYQGQIHVKDGQFRIE to LTVHVGNVTYHFDNPEQAEERAKRMAKKYQGQIHVKDGQFRIE, the “folding stability dG” value falls from 0.395 kcal/mol to -0.245 kcal/mol.

Going from LTVHVGNVTYHFDNPEQAEEGAKRMAKKYQGQIHVKDGQFRIE to LTVTVGNVTYHFDNPEQAEEWAKRMAKKYQGQIHVKDGQFRIE, the “folding stability dG” value rises from 0.008 kcal/mol to 1.85 kcal/mol.

Compared with LTVGVGNVTYHFDNPEQAEEWAKRMAKKYQGQIHVKDGQFRIE, LTVIVGNVTYHFDNPEQAEEWAKRMAKKYQGQIHVKDGQFRIE is higher in “folding stability dG” value: 0.951 kcal/mol for the first, 1.9 kcal/mol for the second.

First: LTVHVGNVTYHFDNPEQAEEWAKRMAKKYQGHIHVKDGQFRIE
Second: LTVHVGNVTYHFDNPEQAEEWAKRMAKWYQGQIHVKDGQFRIE
The “folding stability dG” value of the first is higher: 1.81 kcal/mol for the first, 1.6 kcal/mol for the second.

In the case of LTVHVGNVTYHFDNPEQAEEWAKRMAKCYQGQIHVKDGQFRIE, the “folding stability dG” value is reported as 2.59 kcal/mol.
